Laboratory results published in article PMC9605926, “Safety of [^177Lu]Lu-NeoB treatment: a preclinical study characterizing absorbed dose and acute, early, and late organ toxicity” (European Journal of Nuclear Medicine and Molecular Imaging, 2022).
Where “and” joins values, the source holds several entries; their conditions need not be identical. Equal values may be shown once.

How the values were obtained:
patients = settings: human, in vivo; cited from earlier work
Excerpt: Due to the very small size of murine kidneys and the long range of β^− particles, the murine kidneys receive a more homogeneous radiation dose compared to the much larger human kidneys. […] These ... || Bone marrow toxicity is a concern when using targeted radionuclide therapy with, for example, lutetium-177 labeled peptides with a long circulation time. Here, we found a decrease in WBC counts 5 weeks after radioligand injection in treatment group 3, which received bone marrow doses between 0.20 and 0.36 Gy. Although not clear from our histopathological analysis, this finding could potentially indicate bone marrow suppression. However, it should also be noted that the brief drop in WBC counts may have (partly) been caused by the reported urinary bladder inflammation. The observed ...

healthy Balb/c mice [1] = assay: Toxicity study, histopathology (5-point grade); 3 i.v. injections at 7-day interval; control group 2 = 3× 1200 pmol [175Lu]Lu-NeoB; treatment groups 1/2/3 = 3× 40 MBq/400 pmol, 80 MBq/800 pmol, 120 MBq/1200 pmol [177Lu]Lu-NeoB; format: in vivo, mouse
Description: (§1) Five different experimental groups (10 male and 10 female healthy animals per group; n = 100) were included in the radiotoxicity study and treated as follows: control group 1: 3 × vehicle (PBS + kolliphor HS 15 (1 mg/mL)); control group 2: 3 × 1200 pmol [^175Lu]Lu-NeoB; treatment group 1: 3 × 40 MBq/400 pmol [^177Lu]Lu-NeoB; treatment group 2: 3 × 80 MBq/800 pmol [^177Lu]Lu-NeoB; and treatment group 3: 3 × 120 MBq/1200 pmol [^177Lu]Lu-NeoB.
(§2) Animals received 3 injections with an interval of 7 days between each injection.
At 5, 19, and 43 weeks after the first injection, 3–4 male and 3–4 female animals of each group were sacrificed by isoflurane overdose after a blood sample was taken by retro-orbital puncture. Hereafter, the axillary lymph nodes, mesenteric lymph nodes, skin, mammary fat pad, sternum, pancreas, adrenal glands, kidneys, spleen, liver, gallbladder, stomach, duodenum, jejunum, ileum, caecum, colon, rectum, testes (M), epididymis (M), seminal vesicles (M), prostate gland (M), ovaries (F), oviducts (F), uterus-cervix (F), vagina (F), bladder, ureters, sciatic nerve, skeletal muscle, femur, lungs, trachea, esophagus, thymus, thyroid gland, aorta, heart, brain, pituitary gland, eyes, harderian glands, tongue, spinal column, and the tail were collected and analyzed macroscopically. All organs and tissues were formalin fixed (4% buffered formaldehyde) and shipped to the European Research Biology Centre (ERBC, Pomezia, Rome, Italy) where histological sampling, embedding, sectioning (5 µm thick), and hematoxylin–eosin staining were performed according to standard guidelines. All organs and tissues were analyzed microscopically by an experienced pathologist. A 5-point grading scale was used: 1: minimal change, 2: mild change, 3: moderate change, 4: marked change, 5: severe change.

healthy Balb/c mice [2] = assay: Toxicity study, hematology (same groups as A3); format: in vivo, mouse; settings: control group 2, 5, 11, 19, 30, 43 wk, mean±SD
Description: as §1, §2
Throughout the study, the animals were observed daily to check for physical signs of toxicity and signs of discomfort, and animals were weighed 2–3 times per week. Furthermore, at week -1, 5, 11, 19, 30, and 43, blood samples were collected by submandibular puncture from all animals that were in the study at that time point. All blood samples were analyzed for hematological parameters (hematocrit; hemoglobin; red blood cell count; white blood cell count; hemoglobin; mean cell hemoglobin concentration; mean cell volume; platelet count) on the scilVet abc + counter (Covetrus).

healthy Balb/c mice [3] = assay: Toxicity study, clinical chemistry; format: in vivo, mouse; settings: control group 2, 5, 11, 19, 30, 43 wk, mean±SD
Description: as §1, §2
In addition, the following clinical chemistry parameters were measured: sodium, potassium chloride, calcium, glucose, creatinine, urea, alanine aminotransferase (ALT), aspartate aminotransferase (AST), alkaline phosphatase (ALP), amylase, lipase, and cholesterol, using the Roche/Hitachi cobas c systems according to the standard protocol. To reach the volume necessary for measuring the clinical chemistry parameters, the blood plasma was diluted 3–5 times with demineralized water.

[4] = female wk 43, control group 2, grade 1
[5] = female wk 43, control group 2, grade 2
[6] = male wk 5, control group 2, grade 1
[7] = male wk 5, control group 2, grade 2
[8] = male wk 19, control group 2, grade 1
[9] = male wk 43, control group 2, grade 1
[10] = male wk 43, control group 2, grade 2

[^177Lu]Lu-DOTATATE
Average absorbed bone marrow dose (patients): 2 Gy
Average kidney dose in patients (patients): 20.1 ± 4.9 Gy
Minimal to mild nephrotoxicity, cases (patients): 6/79

CC(C)CC(CC(C)C)NC(=O)[C@H](Cc1cnc[nH]1)NC(=O)CNC(=O)[C@@H](NC(=O)[C@H](C)NC(=O)[C@H](Cc1c[nH]c2ccccc12)NC(=O)[C@H](CCC(N)=O)NC(=O)[C@@H](Cc1ccccc1)NC(=O)COCC(=O)Nc1ccc(CNC(=O)CN2CCN(CC(=O)O)CCN(CC(=O)O)CCN(CC(=O)O)CC2)cc1)C(C)C [[^175Lu]Lu-NeoB]
Treatment-related toxicological effects (healthy Balb/c mice [1]; control group 2, 3× 1200 pmol, male and female): did not show any treatment-related toxicological effects
Adrenal glands subcapsular cell hyperplasia, incidence (healthy Balb/c mice [1]; female wk 5, control group 2, grade 1): 2/3
Brain artifacts, incidence (healthy Balb/c mice [1]; female wk 5, control group 2, grade 3): 1/3
Adrenal glands subcapsular cell hyperplasia, incidence (healthy Balb/c mice [1]; female wk 19, control group 2, grade 1): 1/3
Adrenal glands subcapsular cell hyperplasia, incidence (healthy Balb/c mice [1]; female wk 19, control group 2, grade 2): 2/3
Adrenal glands subcapsular cell hyperplasia, incidence (healthy Balb/c mice [1]; [4]): 1/4
Liver inflammatory cell foci, incidence (healthy Balb/c mice [1]; [4]): 1/4
Adrenal glands subcapsular cell hyperplasia, incidence (healthy Balb/c mice [1]; [5]): 2/4
Pancreas inflammatory cell foci, incidence (healthy Balb/c mice [1]; [5]): 1/4
Uterus endometrial hyperplasia, incidence (healthy Balb/c mice [1]; female wk 43, control group 2, grade 4): 1/4
Adrenal glands accessory cortical tissue, incidence (healthy Balb/c mice [1]; [6]): 1/3
Adrenal glands subcapsular cell hyperplasia, incidence (healthy Balb/c mice [1]; [6]): 1/3
Adrenal glands subcapsular cell hyperplasia, incidence (healthy Balb/c mice [1]; [7]): 1/3
Spleen extramedullary haematopoiesis, incidence (healthy Balb/c mice [1]; [7]): 1/3
Adrenal glands subcapsular cell hyperplasia, incidence (healthy Balb/c mice [1]; [8]): 2/3
Pancreas inflammatory cell foci, incidence (healthy Balb/c mice [1]; [8]): 1/3
Urinary bladder proteinaceous plug, incidence (healthy Balb/c mice [1]; male wk 19, control group 2, grade 2): 1/3
Adrenal glands subcapsular cell hyperplasia, incidence (healthy Balb/c mice [1]; [9]): 3/4
Kidneys inflammatory cell foci, incidence (healthy Balb/c mice [1]; [9]): 1/4
Testes germ cell depletion, incidence (healthy Balb/c mice [1]; [9]): 1/4
Adrenal glands subcapsular cell hyperplasia, incidence (healthy Balb/c mice [1]; [10]): 1/4
Pancreas inflammatory cell foci, incidence (healthy Balb/c mice [1]; [10]): 1/4
Kidneys cyst/s, incidence (healthy Balb/c mice [1]; male wk 43, control group 2, grade 3): 1/4
WBC (healthy Balb/c mice [2]; female): 7.27 ± 1.51 103/mm3 and 8.51 ± 2.34 103/mm3 and 6.74 ± 3.19 103/mm3 and 10.38 ± 2.86 103/mm3 and 7.40 ± 0.72 103/mm3
WBC (healthy Balb/c mice [2]; male): 7.67 ± 1.50 103/mm3 and 8.37 ± 2.67 103/mm3 and 9.53 ± 2.84 103/mm3 and 9.80 ± 2.25 103/mm3 and 6.70 ± 2.71 103/mm3
Alk. Phosphatase (healthy Balb/c mice [3]; female): 100.20 ± 6.96 U/L and 84.43 ± 7.63 U/L and 73.57 ± 9.88 U/L and 86.25 ± 8.54 U/L and 71.25 ± 14.93 U/L
Urea (healthy Balb/c mice [3]; female): 7.83 ± 0.88 mmol/L and 7.07 ± 1.19 mmol/L and 6.14 ± 0.38 mmol/L and 7.00 ± 0.00 mmol/L and 6.17 ± 0.76 mmol/L
Alk. Phosphatase (healthy Balb/c mice [3]; male): 117.70 ± 8.30 U/L and 100.29 ± 7.72 U/L and 62.50 ± 6.45 U/L and 80.00 ± 7.07 U/L and 67.50 ± 2.89 U/L
Urea (healthy Balb/c mice [3]; male): 7.17 ± 0.64 mmol/L and 5.61 ± 0.86 mmol/L and 5.75 ± 0.65 mmol/L and 6.75 ± 1.55 mmol/L and 8.00 ± 2.12 mmol/L
